# According to patent publication US20240116985A1 (published 2024):
# Starred links: 1 amine or outer side, 2 acyl side, 3 side chain; linkers in the order of their positions; H or OH if unused. Positions of bridges follow the written chain, without caps; N, C: chain ends. Non-standard residues stand in square brackets, D forms with d. Primed or numbered codes have the meaning given here. B5(10) = 2-amino-2-(pent-4-en-1-yl)hept-6-enoic acid, bis(4-pentenyl)glycine, stitching residue bearing both staples, C=CCCCC(CCCC=C)(N[*:1])C(=O)[*:2]; PyrS2″ = (S)-3-amino-1-((pent-4-en-1-yloxy)carbonyl)pyrrolidine-3-carboxylic acid (stapling residue), C=CCCCOC(=O)N1CC[C@@](N[*:1])(C(=O)[*:2])C1; B5(18) = 2,2-bis(4-pentenyl)glycine (2-amino-2-(pent-4-en-1-yl)hept-6-enoic acid), stitching residue, C=CCCCC(CCCC=C)(N[*:1])C(=O)[*:2]; TfeGA = (S)-2-amino-3-((carboxymethyl)(2,2,2-trifluoroethyl)amino)propanoic acid, O=C([C@H](CN(CC(=O)[*:3])CC(F)(F)F)N[*:1])[*:2]; PyrS2 = (S)-3-amino-1-((pent-4-en-1-yloxy)carbonyl)pyrrolidine-3-carboxylic acid, C=CCCCOC(=O)N1CC[C@@](N[*:1])(C(=O)[*:2])C1; B5(3) = 2,2-bis(4-pentenyl)glycine (stitching residue), C=CCCCC(CCCC=C)(N[*:1])C(=O)[*:2]; Phe(2-Cl) = N[C@@H](Cc1ccccc1Cl)C(=O)O; Bta = N[C@@H](Cc1csc2ccccc12)C(=O)O; αAllylPro = C=CC[C@@]1(C(=O)O)CCCN1; tBuAla = CC(C)(C)C[C@H](N)C(=O)O; 3Thi = N[C@@H](Cc1ccsc1)C(=O)O; S8 = C=CCCCCCC[C@](C)(N)C(=O)O; hSer = N[C@@H](CCO)C(=O)O
# T1: beta-catenin in DLD1 TCF/LEF luciferase reporter cells (UniProt P35222 1-781)
# T1 sequence (looked up): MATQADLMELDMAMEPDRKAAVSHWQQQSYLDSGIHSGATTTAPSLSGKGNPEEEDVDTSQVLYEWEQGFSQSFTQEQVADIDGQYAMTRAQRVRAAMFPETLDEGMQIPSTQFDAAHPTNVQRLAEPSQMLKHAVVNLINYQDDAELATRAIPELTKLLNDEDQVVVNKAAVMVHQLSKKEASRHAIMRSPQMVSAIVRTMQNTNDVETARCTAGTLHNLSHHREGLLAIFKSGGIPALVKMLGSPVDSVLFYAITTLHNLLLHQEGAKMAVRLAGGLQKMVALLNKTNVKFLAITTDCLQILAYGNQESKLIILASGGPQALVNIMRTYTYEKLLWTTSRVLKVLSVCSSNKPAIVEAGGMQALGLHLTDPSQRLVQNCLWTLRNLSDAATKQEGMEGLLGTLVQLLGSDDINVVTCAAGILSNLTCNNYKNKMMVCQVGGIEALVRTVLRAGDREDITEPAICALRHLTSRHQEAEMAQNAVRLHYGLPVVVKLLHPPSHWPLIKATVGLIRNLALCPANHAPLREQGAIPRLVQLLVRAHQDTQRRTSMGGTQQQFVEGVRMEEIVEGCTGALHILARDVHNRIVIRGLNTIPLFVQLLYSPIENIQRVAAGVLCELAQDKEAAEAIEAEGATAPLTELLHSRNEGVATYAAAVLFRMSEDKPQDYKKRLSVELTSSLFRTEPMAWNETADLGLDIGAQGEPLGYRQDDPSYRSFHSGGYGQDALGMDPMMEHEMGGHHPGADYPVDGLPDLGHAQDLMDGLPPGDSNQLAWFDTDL
# T2: B-cat-Halo (UniProt P35222 1-781)
# T2 sequence (looked up): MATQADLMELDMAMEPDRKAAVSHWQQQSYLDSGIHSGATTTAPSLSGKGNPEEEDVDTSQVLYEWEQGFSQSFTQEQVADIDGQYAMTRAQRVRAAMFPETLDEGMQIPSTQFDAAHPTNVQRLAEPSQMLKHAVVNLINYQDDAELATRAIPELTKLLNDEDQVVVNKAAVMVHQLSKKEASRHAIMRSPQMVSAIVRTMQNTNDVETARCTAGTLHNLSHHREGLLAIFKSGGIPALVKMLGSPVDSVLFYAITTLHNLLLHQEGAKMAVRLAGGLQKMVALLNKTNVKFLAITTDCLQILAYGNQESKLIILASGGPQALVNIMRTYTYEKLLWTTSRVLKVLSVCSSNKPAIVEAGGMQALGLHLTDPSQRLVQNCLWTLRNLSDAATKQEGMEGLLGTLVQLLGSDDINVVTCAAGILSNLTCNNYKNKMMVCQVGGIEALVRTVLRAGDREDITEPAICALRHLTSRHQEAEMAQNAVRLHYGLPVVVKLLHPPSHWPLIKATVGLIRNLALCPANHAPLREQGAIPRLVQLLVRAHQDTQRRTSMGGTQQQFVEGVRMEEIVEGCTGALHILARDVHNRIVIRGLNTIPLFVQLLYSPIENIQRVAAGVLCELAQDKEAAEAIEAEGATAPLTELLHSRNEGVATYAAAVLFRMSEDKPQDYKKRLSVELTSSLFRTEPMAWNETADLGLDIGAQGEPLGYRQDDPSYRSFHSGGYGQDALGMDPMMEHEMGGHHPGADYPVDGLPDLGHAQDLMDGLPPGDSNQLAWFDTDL
# T3: beta-catenin in DLD1 TCF/LEF luciferase reporter cells (UniProt P35222 1-781)
# T3 sequence (looked up): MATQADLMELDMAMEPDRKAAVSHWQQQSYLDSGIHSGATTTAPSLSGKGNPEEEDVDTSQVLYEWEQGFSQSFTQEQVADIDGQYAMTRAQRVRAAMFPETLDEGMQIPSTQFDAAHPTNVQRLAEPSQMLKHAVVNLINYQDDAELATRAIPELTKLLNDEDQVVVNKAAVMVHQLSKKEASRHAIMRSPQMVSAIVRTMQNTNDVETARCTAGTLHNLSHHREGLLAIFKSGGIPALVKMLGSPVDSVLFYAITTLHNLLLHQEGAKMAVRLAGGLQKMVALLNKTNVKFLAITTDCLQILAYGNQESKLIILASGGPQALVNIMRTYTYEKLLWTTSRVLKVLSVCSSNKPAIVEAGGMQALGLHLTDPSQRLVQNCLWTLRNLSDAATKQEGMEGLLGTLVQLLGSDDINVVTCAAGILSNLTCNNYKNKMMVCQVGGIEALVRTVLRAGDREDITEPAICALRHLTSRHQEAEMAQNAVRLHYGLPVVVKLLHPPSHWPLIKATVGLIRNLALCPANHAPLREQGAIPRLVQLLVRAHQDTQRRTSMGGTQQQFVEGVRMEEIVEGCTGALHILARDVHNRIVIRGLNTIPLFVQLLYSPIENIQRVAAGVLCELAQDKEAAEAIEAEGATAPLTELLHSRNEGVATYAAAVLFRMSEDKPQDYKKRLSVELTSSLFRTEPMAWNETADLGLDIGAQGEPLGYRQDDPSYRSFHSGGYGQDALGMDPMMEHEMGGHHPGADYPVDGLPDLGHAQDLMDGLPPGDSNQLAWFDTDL
# T4: beta-catenin in DLD1 TCF/LEF luciferase reporter cells (UniProt P35222 1-781)
# T4 sequence (looked up): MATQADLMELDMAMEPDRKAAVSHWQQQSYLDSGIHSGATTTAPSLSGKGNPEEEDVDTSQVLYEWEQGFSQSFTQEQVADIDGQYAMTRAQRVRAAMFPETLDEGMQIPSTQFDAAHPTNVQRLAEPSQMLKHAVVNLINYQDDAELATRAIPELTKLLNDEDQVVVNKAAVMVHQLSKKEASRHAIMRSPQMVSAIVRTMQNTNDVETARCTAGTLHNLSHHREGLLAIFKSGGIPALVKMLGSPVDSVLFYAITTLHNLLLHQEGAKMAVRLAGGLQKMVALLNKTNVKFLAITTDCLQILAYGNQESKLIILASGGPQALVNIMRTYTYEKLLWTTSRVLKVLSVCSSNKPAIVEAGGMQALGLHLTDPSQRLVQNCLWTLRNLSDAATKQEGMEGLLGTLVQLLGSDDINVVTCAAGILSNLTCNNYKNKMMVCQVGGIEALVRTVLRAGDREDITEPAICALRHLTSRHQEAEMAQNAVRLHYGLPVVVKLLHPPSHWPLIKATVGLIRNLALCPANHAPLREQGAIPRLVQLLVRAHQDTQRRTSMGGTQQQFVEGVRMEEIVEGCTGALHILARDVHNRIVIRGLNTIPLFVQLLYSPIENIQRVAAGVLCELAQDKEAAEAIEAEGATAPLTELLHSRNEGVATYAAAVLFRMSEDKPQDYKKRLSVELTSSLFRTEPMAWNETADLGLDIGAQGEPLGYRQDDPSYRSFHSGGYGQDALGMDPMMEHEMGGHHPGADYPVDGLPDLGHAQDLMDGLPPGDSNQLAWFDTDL
# T5: B-cat-Halo (beta-catenin HaloTag NanoBRET construct expressed in HEK293 cells) (UniProt P35222 1-781)
# T5 sequence (looked up): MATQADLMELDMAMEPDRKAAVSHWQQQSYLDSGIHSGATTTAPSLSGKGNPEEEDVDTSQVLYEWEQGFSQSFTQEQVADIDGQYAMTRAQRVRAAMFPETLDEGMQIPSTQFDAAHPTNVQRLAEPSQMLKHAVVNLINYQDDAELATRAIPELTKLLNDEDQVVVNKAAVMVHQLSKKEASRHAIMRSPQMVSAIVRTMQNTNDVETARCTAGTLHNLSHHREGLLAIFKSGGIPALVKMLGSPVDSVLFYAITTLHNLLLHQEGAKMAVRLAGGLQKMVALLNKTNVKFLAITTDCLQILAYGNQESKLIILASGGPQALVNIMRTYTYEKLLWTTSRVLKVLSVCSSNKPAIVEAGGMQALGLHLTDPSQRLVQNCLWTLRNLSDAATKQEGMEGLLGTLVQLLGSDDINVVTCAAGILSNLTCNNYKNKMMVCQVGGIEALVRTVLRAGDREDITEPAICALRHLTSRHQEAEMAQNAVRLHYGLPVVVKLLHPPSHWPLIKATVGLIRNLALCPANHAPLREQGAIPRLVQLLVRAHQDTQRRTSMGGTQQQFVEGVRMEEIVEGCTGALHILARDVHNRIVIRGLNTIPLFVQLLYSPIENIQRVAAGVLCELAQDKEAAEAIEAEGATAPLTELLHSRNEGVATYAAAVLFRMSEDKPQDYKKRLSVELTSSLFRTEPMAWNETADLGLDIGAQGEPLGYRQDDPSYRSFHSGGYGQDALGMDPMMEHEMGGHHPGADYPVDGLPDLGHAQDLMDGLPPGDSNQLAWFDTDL
# T6: full-length beta-Catenin (Uniprot ID P35222) (Homo sapiens (Human), UniProt P35222 1-781)
# T6 construct: also called bCat; B-Catenin
# T6 sequence: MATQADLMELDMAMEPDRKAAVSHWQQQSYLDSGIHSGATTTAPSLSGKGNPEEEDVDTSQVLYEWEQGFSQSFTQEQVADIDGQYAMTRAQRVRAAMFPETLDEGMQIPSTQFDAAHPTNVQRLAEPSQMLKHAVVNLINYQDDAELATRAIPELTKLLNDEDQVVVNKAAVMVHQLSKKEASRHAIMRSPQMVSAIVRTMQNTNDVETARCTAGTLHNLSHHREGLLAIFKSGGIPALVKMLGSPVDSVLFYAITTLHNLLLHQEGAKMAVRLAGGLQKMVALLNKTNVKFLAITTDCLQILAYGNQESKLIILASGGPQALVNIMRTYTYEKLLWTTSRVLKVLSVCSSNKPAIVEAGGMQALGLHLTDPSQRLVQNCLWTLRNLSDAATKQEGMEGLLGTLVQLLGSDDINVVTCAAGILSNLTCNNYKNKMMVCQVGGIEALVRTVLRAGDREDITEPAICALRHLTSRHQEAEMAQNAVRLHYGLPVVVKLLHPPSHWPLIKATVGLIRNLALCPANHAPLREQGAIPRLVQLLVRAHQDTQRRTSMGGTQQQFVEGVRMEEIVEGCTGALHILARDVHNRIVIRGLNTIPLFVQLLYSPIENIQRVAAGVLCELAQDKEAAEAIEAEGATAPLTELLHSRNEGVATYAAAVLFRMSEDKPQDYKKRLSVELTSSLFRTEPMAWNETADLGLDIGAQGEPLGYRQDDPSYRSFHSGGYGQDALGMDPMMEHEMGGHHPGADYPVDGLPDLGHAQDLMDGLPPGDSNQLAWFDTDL
# Tests used:
# [1] = molecular target: T1, beta-catenin in DLD1 TCF/LEF luciferase …; assay: cell-based or functional assay
# B-cat-Halo = molecular target: T2, B-cat-Halo; assay: cell-based or functional assay
# [2] = molecular target: T3, beta-catenin in DLD1 TCF/LEF luciferase …; assay: cell-based or functional assay; remark: listed apart in the source
# [3] = molecular target: T4, beta-catenin in DLD1 TCF/LEF luciferase …; assay: cell-based or functional assay; remark: listed apart in the source
# [4] = molecular target: T5, B-cat-Halo (beta-catenin HaloTag …); assay: cell-based or functional assay
# [5] = molecular target: T6, full-length beta-Catenin (Uniprot ID …); assay: fluorescence polarization competition; full-length beta-catenin + 5FAM-TCF4(10-53) probe
# Experimental: The plate was incubated protected from light for 60 minutes at 20° C. prior to read. Reads were performed on a CLARIOstar plate reader (BMG Labtech) in duplicate, and data were fitted to a 1:1 binding model with hill slope using an in-house script. All provided concentrations are final concentrations.
binder,measurement,setting,value
"Ac-[αAllylPro]D[tBuAla][B5(3)]D[TfeGA]AAF[hSer][S8][Phe(2-Cl)][Bta]Q-NH2 (staple 1-4, 4-11) [I-996]",DLD1 reporter assay Abs IC50,[1],10.8 µM
"Ac-[αAllylPro]D[tBuAla][B5(18)]D[TfeGA]FAFN[PyrS2″][Phe(2-Cl)][Bta]Q-NH2 (staple 1-4, 4-11) [I-1008]",NanoBRET Abs IC50,B-cat-Halo,14 µM
same,DLD1 4% Abs IC50,[2],4.7 µM
"Ac-[αAllylPro]D[tBuAla][B5(3)]D[TfeGA]AAFL[PyrS2″][3Thi][Bta][Me2Gln]A-NH2 (staple 1-4, 4-11) [Ac-PL3-Asp-Npg-B5-Asp-TfeGA-Ala-Ala-Phe-Leu-PyrS2-3Thi-BztA-Me2Gln-Ala-NH2]",DLD1 4% Abs IC50,[3],1.4 µM
same,NanoBRET Abs IC50,[4],2.5 µM
"Ac-[αAllylPro]NA[B5(10)]DTAAFL[PyrS2]F[Bta]Q-NH2 (staple 1-4, 4-11; not fully specified; printed as Ac-PL3-Asn-Ala-B5-Asp-Thr-Ala-Ala-Phe-Leu-PyrS2-Phe-BztA-Gln-NH2) [I-1287]",EC50,[5],10 µM
